Assay results taken from article PMC11784390, “Conformational changes in and translocation of small proteins: insights into the ejection mechanism of podophages” (Journal of Virology, 2024).

T1: core protein gp15 (bacteriophage T7, UniProt P03725 1-747)
T1 construct: core protein gp15 of bacteriophage T7, as it stands in the mature virion; Eight-fold ring in the core of mature T7; source: T7 virions propagated in E. coli, purified (PEG precipitation, CsCl ultracentrifugation)
T1 sequence (looked up): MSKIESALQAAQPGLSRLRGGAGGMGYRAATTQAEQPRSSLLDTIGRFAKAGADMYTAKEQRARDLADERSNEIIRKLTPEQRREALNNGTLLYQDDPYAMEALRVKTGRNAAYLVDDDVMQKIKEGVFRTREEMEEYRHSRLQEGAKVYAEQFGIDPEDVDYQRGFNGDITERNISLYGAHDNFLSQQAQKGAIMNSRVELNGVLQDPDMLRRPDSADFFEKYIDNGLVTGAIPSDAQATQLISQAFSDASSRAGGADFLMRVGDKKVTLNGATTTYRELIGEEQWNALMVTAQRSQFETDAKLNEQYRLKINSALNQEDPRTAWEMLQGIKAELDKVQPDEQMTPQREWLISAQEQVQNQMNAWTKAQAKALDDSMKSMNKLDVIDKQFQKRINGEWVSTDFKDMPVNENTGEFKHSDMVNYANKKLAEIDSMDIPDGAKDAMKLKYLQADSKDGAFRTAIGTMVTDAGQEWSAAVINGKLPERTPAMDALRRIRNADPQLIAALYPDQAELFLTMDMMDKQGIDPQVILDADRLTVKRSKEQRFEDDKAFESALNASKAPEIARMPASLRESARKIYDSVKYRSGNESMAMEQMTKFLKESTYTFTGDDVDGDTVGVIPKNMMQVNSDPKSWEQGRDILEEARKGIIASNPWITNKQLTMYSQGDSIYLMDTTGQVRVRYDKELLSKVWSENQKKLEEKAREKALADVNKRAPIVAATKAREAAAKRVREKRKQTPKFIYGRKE

B1: portal protein gp8 (natural protein, bacteriophage T7, UniProt P03728 1-536, looked up)
chain: MAEKRTGLAEDGAKSVYERLKNDRAPYETRAQNCAQYTIPSLFPKDSDNASTDYQTPWQAVGARGLNNLASKLMLALFPMQTWMRLTISEYEAKQLLSDPDGLAKVDEGLSMVERIIMNYIESNSYRVTLFEALKQLVVAGNVLLYLPEPEGSNYNPMKLYRLSSYVVQRDAFGNVLQMVTRDQIAFGALPEDIRKAVEGQGGEKKADETIDVYTHIYLDEDSGEYLRYEEVEGMEVQGSDGTYPKEACPYIPIRMVRLDGESYGRSYIEEYLGDLRSLENLQEAIVKMSMISSKVIGLVNPAGITQPRRLTKAQTGDFVTGRPEDISFLQLEKQADFTVAKAVSDAIEARLSFAFMLNSAVQRTGERVTAEEIRYVASELEDTLGGVYSILSQELQLPLVRVLLKQLQATQQIPELPKEAVEPTISTGLEAIGRGQDLDKLERCVTAWAALAPMRDDPDINLAMIKLRIANAIGIDTSGILLTEEQKQQKMAQQSMQMGMDNGAAALAQGMAAQATASPEAMAAAADSVGLQPGI
notes: portal protein gp8 of bacteriophage T7, as it stands in the virion; Native virion protein; also called dodecameric portal; source: T7 virions propagated in E. coli, purified (PEG precipitation, CsCl ultracentrifugation); copies: 12
B2: nozzle protein gp12 (natural protein, bacteriophage T7, UniProt P03747 1-794, looked up)
chain: MALISQSIKNLKGGISQQPDILRYPDQGSRQVNGWSSETEGLQKRPPLVFLNTLGDNGALGQAPYIHLINRDEHEQYYAVFTGSGIRVFDLSGNEKQVRYPNGSNYIKTANPRNDLRMVTVADYTFIVNRNVVAQKNTKSVNLPNYNPNQDGLINVRGGQYGRELIVHINGKDVAKYKIPDGSQPEHVNNTDAQWLAEELAKQMRTNLSDWTVNVGQGFIHVTAPSGQQIDSFTTKDGYADQLINPVTHYAQSFSKLPPNAPNGYMVKIVGDASKSADQYYVRYDAERKVWTETLGWNTEDQVLWETMPHALVRAADGNFDFKWLEWSPKSCGDVDTNPWPSFVGSSINDVFFFRNRLGFLSGENIILSRTAKYFNFYPASIANLSDDDPIDVAVSTNRIAILKYAVPFSEELLIWSDEAQFVLTASGTLTSKSVELNLTTQFDVQDRARPFGIGRNVYFASPRSSFTSIHRYYAVQDVSSVKNAEDITSHVPNYIPNGVFSICGSGTENFCSVLSHGDPSKIFMYKFLYLNEELRQQSWSHWDFGENVQVLACQSISSDMYVILRNEFNTFLARISFTKNAIDLQGEPYRAFMDMKIRYTIPSGTYNDDTFTTSIHIPTIYGANFGRGKITVLEPDGKITVFEQPTAGWNSDPWLRLSGNLEGRMVYIGFNINFVYEFSKFLIKQTADDGSTSTEDIGRLQLRRAWVNYENSGTFDIYVENQSSNWKYTMAGARLGSNTLRAGRLNLGTGQYRFPVVGNAKFNTVYILSDETTPLNIIGCGWEGNYLRRSSGI
notes: nozzle protein gp12 of bacteriophage T7, as it stands in the virion; Native virion protein; also called tail nozzle; source: T7 virions propagated in E. coli, purified (PEG precipitation, CsCl ultracentrifugation)

What was measured:
[1] = molecular target: the molecule itself; assay: cryo-EM structure; mature T7 virions, in situ; entire particle asymmetric 6.1 Å; local reconstructions of core complex 3 Å (four-fold), portal 2.5 Å (twelve-fold), portal–tail complex 2.7 Å (six-fold)
nozzle protein gp12 = molecular target: B2; assay: cryo-EM structure; DNA-ejected T7: purified mature T7 incubated with rough LPS (250 µg/mL) at 37°C for 3 h; entire particle asymmetric 8.2 Å; portal–tail complex 3.5 Å (six-fold); conditions: both partners purified
[2] = molecular target: the molecule itself; assay: as above
portal protein gp8 = molecular target: B1; assay: cryo-EM structure; mature T7 virions, in situ; entire particle asymmetric 6.1 Å; local reconstructions of core complex 3 Å (four-fold), portal 2.5 Å (twelve-fold), portal–tail complex 2.7 Å (six-fold); conditions: both partners purified
core protein gp15 = molecular target: T1, core protein gp15; assay: as above; conditions: both partners purified

| Binder | stoichiometry N [1] | binding result (nozzle protein gp12) | stoichiometry N [2] | binding result (portal protein gp8) | binding result (core protein gp15) |
| --- | --- | --- | --- | --- | --- |
| B1 | 12 |  |  |  |  |
| core protein gp14 (natural protein, bacteriophage T7, UniProt P03724 1-196, looked up, core protein gp14 of bacteriophage T7, 196 residues as printed; modelled residues 4-86 and 101-129 in mature T7, 25-143 in DNA-ejected T7; Eight copies resolved in the mature virion, six copies in the extended channel of DNA-ejected T7; source: T7 virions propagated in E. coli, purified (PEG precipitation, CsCl ultracentrifugation)) MCWAAAIPIAISGAQAISGQNAQAKMIAAQTAAGRRQAMEIMRQTNIQNADLSLQARSKLEEASAELTSQNMQKVQAIGSIRAAIGESMLEGSSMDRIKRVTEGQFIREANMVTENYRRDYQAIFAQQLGGTQSAASQIDEIYKSEQKQKSKLQMVLDPLAIMGSSAASAYASGAFDSKSTTKAPIVAAKGTKTGR |  | binds | 6 | binds | binds |
| B2 |  |  | 6 |  |  |
| fiber protein gp17 (natural protein, bacteriophage T7, UniProt P03748 1-553, looked up, tail fiber protein gp17 of bacteriophage T7, as it stands in the virion; Six trimeric fibers on the virion; also called tail fiber; source: T7 virions propagated in E. coli, purified (PEG precipitation, CsCl ultracentrifugation)) MANVIKTVLTYQLDGSNRDFNIPFEYLARKFVVVTLIGVDRKVLTINTDYRFATRTTISLTKAWGPADGYTTIELRRVTSTTDRLVDFTDGSILRAYDLNVAQIQTMHVAEEARDLTTDTIGVNNDGHLDARGRRIVNLANAVDDRDAVPFGQLKTMNQNSWQARNEALQFRNEAETFRNQAEGFKNESSTNATNTKQWRDETKGFRDEAKRFKNTAGQYATSAGNSASAAHQSEVNAENSATASANSAHLAEQQADRAEREADKLENYNGLAGAIDKVDGTNVYWKGNIHANGRLYMTTNGFDCGQYQQFFGGVTNRYSVMEWGDENGWLMYVQRREWTTAIGGNIQLVVNGQIITQGGAMTGQLKLQNGHVLQLESASDKAHYILSKDGNRNNWYIGRGSDNNNDCTFHSYVHGTTLTLKQDYAVVNKHFHVGQAVVATDGNIQGTKWGGKWLDAYLRDSFVAKSKAWTQVWSGSAGGGVSVTVSQDLRFRNIWIKCANNSWNFFRTGPDGIYFIASDGGWLRFQIHSNGLGFKNIADSRSVPNAIMVENE | 3 |  |  |  |  |
